In article PMC8189185 (Structure (London, England : 1993), 2017):

Molecular target: the molecule itself
Experiment: cryo-EM structure

B1: PilA, major pilin subunit of the Pseudomonas aeruginosa strain K (PaK) Type IV pilus (natural protein)
chain: FTLIELMIVVAIIGILAAIAIPQYQNYVARSEGASALASVNPLKTTVEEALSRGWSVKSGTGTEDATKKEVPLGVAADANKLGTIALKPDPADGTADITLTFTMGGAGPKNKGKIITLTRTAADGLWKCTSDQDEQFIPKGCSR
B1: binds.
